In US20110104143A1 (UAB RESEARCH FOUNDATION, published 2011):

Legend:
[1] = molecular target: T1, human DR5 (full-length) (human, UniProt O14763 56-440); test: cell-based or functional assay
[2] = molecular target: T1, human DR5 (full-length); test: cell-based or functional assay; remark: listed apart in the source
[3] = molecular target: T1, human DR5 (full-length); test: co-immunoprecipitation and Western blot with anti-6-His antibody, transfected MDA231 cells
Experimental: (§1) The composition of the DR5 DISC was determined as follows. […] The DR5 DISC was then precipitated overnight at 4° C. with 30 μl beads. After immunoprecipitation, the beads were washed four times with lysis buffer. The beads were then washed five times with 10 mM Tris buffer and resuspended in loading buffer for SDS-PAGE and immunoblotting analyses.

[4] = molecular target: T1, human DR5 (full-length); test: co-immunoprecipitation using TRA-8, transfected HEK293A cells
Experimental: (§2) After 24 hours following transfection, protein expression was determined by Western blot analysis using respective monoclonal antibody. For co-immunoprecipitation analysis, cells were lysed with immunoprecipitation-lysis buffer containing a protease inhibitor cocktail.
as §1

[5] = molecular target: T2, cIAP1 (human, UniProt Q13490 1-618, limits assumed); test: co-immunoprecipitation, transfected HEK293A cells
T2 construct: also called DR5-associated cIAP1; purified cIAP1
T2 sequence (Q13490 whole entry): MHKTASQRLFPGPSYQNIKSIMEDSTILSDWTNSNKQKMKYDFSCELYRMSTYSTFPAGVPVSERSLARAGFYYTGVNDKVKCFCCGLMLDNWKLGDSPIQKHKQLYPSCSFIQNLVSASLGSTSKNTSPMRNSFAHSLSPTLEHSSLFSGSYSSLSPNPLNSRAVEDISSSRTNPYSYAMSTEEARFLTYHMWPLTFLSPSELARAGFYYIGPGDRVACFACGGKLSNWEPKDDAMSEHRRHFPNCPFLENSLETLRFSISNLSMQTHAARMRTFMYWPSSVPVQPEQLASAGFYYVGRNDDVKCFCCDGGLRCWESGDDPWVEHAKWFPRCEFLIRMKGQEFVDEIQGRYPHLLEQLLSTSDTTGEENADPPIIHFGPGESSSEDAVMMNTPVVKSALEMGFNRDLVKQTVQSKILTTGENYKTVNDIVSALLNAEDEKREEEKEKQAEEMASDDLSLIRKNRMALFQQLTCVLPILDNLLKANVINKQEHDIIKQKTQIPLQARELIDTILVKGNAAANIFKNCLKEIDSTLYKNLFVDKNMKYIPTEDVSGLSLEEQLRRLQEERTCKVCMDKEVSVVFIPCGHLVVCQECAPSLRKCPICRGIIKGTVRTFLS
Experimental: as §2

[6] = molecular target: T2, cIAP1; test: DR5 co-IP and Western blot with anti-DDX3 and anti-cIAP1 antibody

B1: TRA-8 (anti-human DR5 monoclonal antibody) (antibody, V domains shown)
VH: EVMLVESGGGLVKPGGSLKLSCAASGFTFSSYVMSWVRQTPEKRLEWVATISSGGSYTYYPDSVKGRFTISRDNAKNTLYLQMSSLRSEDTAMYYCARRGDSMITTDYWGQGTTLTVSS
VL: DIVMTQSHKFMSTSVGDRVSITCKASQDVGTAVAWYQQKPGQSPKLLIYWASTRHTGVPDRFTGSGSGTDFTLTISNVQSEDLADYFCQQYSSYRTFGGGTKLEIKR
For B1, which “IC50 of TRA-8 cytotoxicity (ATP cell viability), 2LMP cells” value [1] is on record?
Its value is 0.0011 µg/mL.

What about the “IC50 of TRA-8 cytotoxicity (ATP cell viability), BT-20 cells” value [1] of the same binder?
The value was 0.048 µg/mL.

What about the “IC50 of TRA-8 cytotoxicity (ATP cell viability), BT-549 cells” value [1] of the same binder?
Its value is 0.018 µg/mL.

And the “IC50 of TRA-8 cytotoxicity (ATP cell viability), HCC38 cells” value [1]?
The value was 0.0009 µg/mL.

And the “IC50 of TRA-8 cytotoxicity (ATP cell viability), HCC1143 cells” value [1]?
Its value is > 1 µg/mL.

And the “IC50 of TRA-8 cytotoxicity (ATP cell viability), HCC1187 cells” value [1]?
Its value is 0.024 µg/mL.

And the “IC50 of TRA-8 cytotoxicity (ATP cell viability), HCC1599 cells” value [1]?
The value was > 1 µg/mL.

And the “IC50 of TRA-8 cytotoxicity (ATP cell viability), HCC1937 cells” value [1]?
Its value is > 1 µg/mL.

What about the “IC50 of TRA-8 cytotoxicity (ATP cell viability), MDA-MB-152 cells” value [1] of the same binder?
Its value is 0.012 µg/mL.

And the “IC50 of TRA-8 cytotoxicity (ATP cell viability), MDA-MB-231 cells” value [1]?
Its value is 0.018 µg/mL.

What about the “IC50 of TRA-8 cytotoxicity (ATP cell viability), MDA-MB-436 cells” value [1] of the same binder?
Its value is 0.0032 µg/mL.

What about the “IC50 of TRA-8 cytotoxicity (ATP cell viability), MDA-MB-468 cells” value [1] of the same binder?
Its value is 0.017 µg/mL.

And the “IC50 of TRA-8 cytotoxicity (ATP cell viability), SUM102 cells” value [1]?
The value was 0.0045 µg/mL.

What about the “IC50 of TRA-8 cytotoxicity (ATP cell viability), SUM149 cells” value [1] of the same binder?
The value was 0.0009 µg/mL.

And the “IC50 of TRA-8 cytotoxicity (ATP cell viability), SUM159 cells” value [1]?
Its value is 0.0019 µg/mL.

What about the “IC50 of TRA-8 cytotoxicity (ATP cell viability), BT-474 cells” value [2] of the same binder?
The value was > 1 µg/mL.

What about the “IC50 of TRA-8 cytotoxicity (ATP cell viability), DY36T2 (MDA-MB-361 subclone) cells” value [2] of the same binder?
The value was > 1 µg/mL.

What about the “IC50 of TRA-8 cytotoxicity (ATP cell viability), MCF-7 cells” value [2] of the same binder?
Its value is > 1 µg/mL.

And the “IC50 of TRA-8 cytotoxicity (ATP cell viability), MDA-MB-134 cells” value [2]?
The value was > 1 µg/mL.

And the “IC50 of TRA-8 cytotoxicity (ATP cell viability), MDA-MB-453 cells” value [2]?
The value was > 1 µg/mL.

What about the “IC50 of TRA-8 cytotoxicity (ATP cell viability), SK-BR-3 cells” value [2] of the same binder?
The value was > 1 µg/mL.

And the “IC50 of TRA-8 cytotoxicity (ATP cell viability), T-47D cells” value [2]?
Its value is > 1 µg/mL.

What about the “IC50 of TRA-8 cytotoxicity (ATP cell viability), ZR-75-1 cells” value [2] of the same binder?
Its value is 0.683 µg/mL.

What about the “IC50 of TRA-8 cytotoxicity (ATP cell viability), ZR-75-30 cells” value [2] of the same binder?
Its value is > 1 µg/mL.

B2: His-tagged DDX3 C-terminal fragment (amino acids 310-662) (other)
chain: HHHHHHIRDLERGCHLLVATPGRLVDMMERGKIGLDFCKYLVLDEADRMLDMGFEPQIRRIVEQDTMPPKGVRHTMMFSATFPKEIQMLARDFLDEYIFLAVGRVGSTSENITQKVVWVEESDKRSFLLDLLNATGKDSLTLVFVETKKGADSLEDFLYHEGYACTSIHGDRSQRDREEALHQFRSGKSPILVATAVAARGLDISNVKHVINFDLPSDIEEYVHRIGRTGRVGNLGLATSFFNERNINITKDLLDLLVEAKQEVPSWLENMAYEHHYKGSSRGRSKSSRFSGGFGARDYRQSSGASSSSFSSSRASSSRSGGGGHGSSRGFGGGGYGGFYNSDGYGGNYNSQGVDWWGN
notes: also called C-terminal deletion mutant
Does B2 bind [3]?
Result: no binding

B3: DDX3Δ1-350 (other, human, UniProt O00571 1-350, looked up, not shown: small tags and cut ends)
chain: MSHVAVENALGLDQQFAGLDLNSSDNQSGGSTASKGRYIPPHLRNREATKGFYDKDSSGWSSSKDKDAYSSFGSRSDSRGKSSFFSDRGSGSRGRFDDRGRSDYDGIGSRGDRSGFGKFERGGNSRWCDKSDEDDWSKPLPPSERLEQELFSGGNTGINFEKYDDIPVEATGNNCPPHIESFSDVEMGEIIMGNIELTRYTRPTPVQKHAIPIIKEKRDLMACAQTGSGKTAAFLLPILSQIYSDGPGEALRAMKENGRYGRRKQYPISLVLAPTRELAVQIYEEARKFSYRSRVRPCVVYGGADIGQQIRDLERGCHLLVATPGRLVDMMERGKIGLDFCKYLVLDEAD
notes: range 1-350; Name read as the residues kept; also called C-terminal deleted DDX3
Does B3 bind [4]?
Result: no binding

B4: DDX3Δ101-662 (other)
chain: HHHHHHRSDYDGIGSRGDRSGFGKFERGGNSRWCDKSDEDDWSKPLPPSERLEQELFSGGNTGINFEKYDDIPVEATGNNCPPHIESFSDVEMGEIIMGNIELTRYTRPTPVQKHAIPIIKEKRDLMACAQTGSGKTAAFLLPILSQIYSDGPGEALRAMKENGRYGRRKQYPISLVLAPTRELAVQIYEEARKFSYRSRVRPCVVYGGADIGQQIRDLERGCHLLVATPGRLVDMMERGKIGLDFCKYLVLDEADRMLDMGFEPQIRRIVEQDTMPPKGVRHTMMFSATFPKEIQMLARDFLDEYIFLAVGRVGSTSENITQKVVWVEESDKRSFLLDLLNATGKDSLTLVFVETKKGADSLEDFLYHEGYACTSIHGDRSQRDREEALHQFRSGKSPILVATAVAARGLDISNVKHVINFDLPSDIEEYVHRIGRTGRVGNLGLATSFFNERNINITKDLLDLLVEAKQEVPSWLENMAYEHHYKGSSRGRSKSSRFSGGFGARDYRQSSGASSSSFSSSRASSSRSGGGGHGSSRGFGGGGYGGFYNSDGYGGNYNSQGVDWWGN
notes: also called DDX3 with the first 100 amino acids deleted; DN
Does B4 bind [5]?
Result: no binding

B5: DDX3ΔCARD (DDX3Δ151-662) (other, human, UniProt O00571 151-662, looked up, not shown: small tags and cut ends)
chain: FSGGNTGINFEKYDDIPVEATGNNCPPHIESFSDVEMGEIIMGNIELTRYTRPTPVQKHAIPIIKEKRDLMACAQTGSGKTAAFLLPILSQIYSDGPGEALRAMKENGRYGRRKQYPISLVLAPTRELAVQIYEEARKFSYRSRVRPCVVYGGADIGQQIRDLERGCHLLVATPGRLVDMMERGKIGLDFCKYLVLDEADRMLDMGFEPQIRRIVEQDTMPPKGVRHTMMFSATFPKEIQMLARDFLDEYIFLAVGRVGSTSENITQKVVWVEESDKRSFLLDLLNATGKDSLTLVFVETKKGADSLEDFLYHEGYACTSIHGDRSQRDREEALHQFRSGKSPILVATAVAARGLDISNVKHVINFDLPSDIEEYVHRIGRTGRVGNLGLATSFFNERNINITKDLLDLLVEAKQEVPSWLENMAYEHHYKGSSRGRSKSSRFSGGFGARDYRQSSGASSSSFSSSRASSSRSGGGGHGSSRGFGGGGYGGFYNSDGYGGNYNSQGVDWWGN
notes: also called dominant negative mutant DDX3 lacking amino acids 1-150; truncated DDX3
Does B5 bind [6]?
Result: no binding
